From patent US20230203170A1 (DRAGONBOAT BIOPHARMACEUTICAL SHANGHAI, published 2023)
Substitutions are numbered along the chain they refer to. Names and notes keep the numbering of the source.

What was measured:
[1] = target: full-length mouse CSF-1R (RefSeq ID NP_001032948) expressed on HEK293F cells (mouse) (UniProt P09581); assay: flow cytometry on HEK293F cells transiently expressing full-length mouse CSF-1R (IRES-EGFP vector), IgG at 100 nM, Alexa Fluor 647 anti-human Fc detection [Conti.]
[2] = target: T1, full-length mouse CSF-1R (RefSeq ID NP_001032948) expressed on HEK293F cells (mouse, UniProt P09581 20-977); assay: flow cytometry on HEK293F cells transiently expressing full-length mouse CSF-1R (IRES-EGFP vector), Alexa Fluor 647 anti-human Fc detection [Conti.]
T1 construct: whole, on cells
T1 sequence (looked up): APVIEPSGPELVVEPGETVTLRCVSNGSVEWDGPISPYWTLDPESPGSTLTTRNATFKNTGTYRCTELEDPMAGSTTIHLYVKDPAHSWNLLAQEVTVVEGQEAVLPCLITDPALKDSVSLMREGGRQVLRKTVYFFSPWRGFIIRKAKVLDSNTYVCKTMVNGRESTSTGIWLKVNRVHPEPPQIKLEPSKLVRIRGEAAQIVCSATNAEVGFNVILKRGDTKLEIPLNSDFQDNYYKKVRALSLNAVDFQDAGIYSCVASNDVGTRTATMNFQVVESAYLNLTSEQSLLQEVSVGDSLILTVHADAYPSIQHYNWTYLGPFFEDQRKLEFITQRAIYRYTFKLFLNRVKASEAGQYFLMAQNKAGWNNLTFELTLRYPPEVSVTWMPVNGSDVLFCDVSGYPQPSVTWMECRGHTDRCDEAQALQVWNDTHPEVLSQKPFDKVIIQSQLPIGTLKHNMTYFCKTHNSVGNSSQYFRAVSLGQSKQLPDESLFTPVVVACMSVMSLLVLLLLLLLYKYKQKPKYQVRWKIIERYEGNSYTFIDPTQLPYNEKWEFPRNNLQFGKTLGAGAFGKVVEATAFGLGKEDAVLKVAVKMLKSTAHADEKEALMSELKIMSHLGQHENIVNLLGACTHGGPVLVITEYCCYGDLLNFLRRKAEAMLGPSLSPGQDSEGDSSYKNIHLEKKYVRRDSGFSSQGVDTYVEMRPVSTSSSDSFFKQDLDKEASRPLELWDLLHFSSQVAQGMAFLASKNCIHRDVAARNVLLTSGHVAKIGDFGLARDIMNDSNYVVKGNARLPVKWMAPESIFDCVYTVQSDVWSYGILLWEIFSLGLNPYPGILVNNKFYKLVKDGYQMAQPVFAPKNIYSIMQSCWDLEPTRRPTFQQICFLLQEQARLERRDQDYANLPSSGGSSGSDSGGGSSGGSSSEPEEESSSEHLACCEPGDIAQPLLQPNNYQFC
Description: (§1) The specificities of the antibodies were also assessed against human, monkey and mouse CSF-1R that are transiently expressed on the surface of HEK293F cells (FIG. 1). Briefly, HEK293F cells were transfected with a plasmid expressing full-length human, monkey (RefSeq ID XP_015307616) or mouse (RefSeq ID NP_001032948) CSF-1R from a bicistronic IRES vector. EGFP was used to identify the transfected cells. After 40 hrs, the transfected cells were harvested and then washed once with 1% PBSA buffer (1% (w/v) BSA in 1×PBS). Cells were then incubated with various IgGs (each at 100 nM) for 1 hr at room temperature, washed once with pre-chilled 1% PBSA buffer, and incubated with Alexa Fluor® 647 conjugated mouse anti-human Fc antibodies for 30 min on ice. The cells were washed once prior to analysis by flow cytometry (Beckman® CytoFlex).

[3] = target: full-length monkey CSF-1R (RefSeq ID XP_015307616) expressed on HEK293F cells (monkey, UniProt A0A2K5WG90 20-976); assay: flow cytometry on HEK293F cells transiently expressing full-length monkey CSF-1R (IRES-EGFP vector), IgG at 100 nM, Alexa Fluor 647 anti-human Fc detection [Conti.]
Description: as §1

[4] = target: T2, full-length human CSF-1R expressed on cells (human, UniProt P07333 20-972); assay: flow cytometry on HEK293F cells transiently expressing full-length human CSF-1R (IRES-EGFP vector), IgG at 100 nM, Alexa Fluor 647 anti-human Fc detection [Conti.]
T2 construct: whole, on cells
Description: as §1

[5] = target: T3, human CSF1R-His (Acrobiosystem, CSR-H5228) (human, UniProt P07333 20-512, limits assumed); assay: SPR Biacore T200; IgG captured by anti-human Fc, CSF1R-His as analyte, 1:1 fit
T3 construct: Bought protein; The catalogue number is printed only for the SPR assay; also called human CSF-1R protein; not shown: His tag
From the text: The specific binding affinity and kinetics of antibodies against human CSF-1R protein were examined by surface plasmon resonance (SPR) analysis using a Biacore™ T200 instrument (GE, USA) according to the manufacturer’s guidelines. Anti-Human IgG (Fc) antibody (Sigma, I2136) was immobilized on CM5 chips according to the instructions of Amine Coupling kit (GE Biacore #BR-1000-50). The immobilized Anti-Human IgG (Fc) antibody was used to capture the antibodies. […] The running buffer used was 0.01 M HEPES, 0.15 M NaCl, 3 mM EDTA, 0.05% (v/v) surfactant P20, pH 7.4. Corresponding controls were conducted in each case using a blank flow cell with no protein captured for “background” subtraction. The association and dissociation curves were fitted to a 1:1 Langmuir binding model using Biacore T200 Evaluation Software (GE, USA) according to the manufacturer’s guidelines.

[6] = target: T1, full-length mouse CSF-1R (RefSeq ID …); assay: flow cytometry on transfected HEK293F cells
Description: as §1

Chain of full-length monkey CSF-1R (RefSeq ID XP_015307616) expressed on HEK293F cells (A0A2K5WG90 entry or part of it limits assumed, form in doubt): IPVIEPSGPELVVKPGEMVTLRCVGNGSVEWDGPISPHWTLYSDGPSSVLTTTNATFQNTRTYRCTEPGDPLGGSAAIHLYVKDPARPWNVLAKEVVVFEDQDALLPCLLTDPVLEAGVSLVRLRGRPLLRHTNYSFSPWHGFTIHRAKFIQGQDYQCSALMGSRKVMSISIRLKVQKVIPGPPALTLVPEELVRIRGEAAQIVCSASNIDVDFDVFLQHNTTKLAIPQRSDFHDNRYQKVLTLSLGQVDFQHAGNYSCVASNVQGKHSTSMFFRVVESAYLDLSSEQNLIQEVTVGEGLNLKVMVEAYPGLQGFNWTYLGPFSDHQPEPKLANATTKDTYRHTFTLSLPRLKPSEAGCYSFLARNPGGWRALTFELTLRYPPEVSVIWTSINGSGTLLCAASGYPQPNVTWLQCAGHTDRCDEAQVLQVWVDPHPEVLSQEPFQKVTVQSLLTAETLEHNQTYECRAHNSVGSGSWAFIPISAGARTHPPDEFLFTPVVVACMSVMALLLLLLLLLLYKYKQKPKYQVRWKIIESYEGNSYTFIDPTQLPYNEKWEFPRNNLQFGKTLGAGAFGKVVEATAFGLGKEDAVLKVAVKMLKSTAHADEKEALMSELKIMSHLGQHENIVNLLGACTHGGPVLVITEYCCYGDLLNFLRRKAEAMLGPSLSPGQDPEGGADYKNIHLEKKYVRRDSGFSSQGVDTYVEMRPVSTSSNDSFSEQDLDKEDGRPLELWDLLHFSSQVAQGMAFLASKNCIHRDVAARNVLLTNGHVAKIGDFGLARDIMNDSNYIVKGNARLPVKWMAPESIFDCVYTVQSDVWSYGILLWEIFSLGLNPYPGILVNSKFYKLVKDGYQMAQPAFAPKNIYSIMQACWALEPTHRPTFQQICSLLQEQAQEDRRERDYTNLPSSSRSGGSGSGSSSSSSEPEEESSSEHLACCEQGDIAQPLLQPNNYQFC

Isotype Ctrl (antibody)
percent of cells in the upper right quadrant (APC Ab binding positive, FITC Ag display positive) [1]: 0.17%

B1: TY21430 (antibody, human IgG4, V domains shown)
VH: EVQLVESGGGLVQPGGSLRLSCAASGYSITSGHHWAWIRQAPGKGLEWVSSISGSGSTTYYADSVKGRFTISRDNSKNTLYLQLNSLRAEDTAVYYCARGSYYGAGSFDYWGQGTLVTVSS
VL: DIQLTQSPSSLSASVGDRVTITCRASQGITSALAWYQQKPGKAPKLLIYDASSLESGVPSRFSGSGSGTDFTLTISSLQPEDFATYYCQQYYPWPWTFGQGTKVEIK
notes: Human IgG4 isotype with S241P mutation
binding result [2]: no binding (tested: 100 nM) | percent of cells in the upper right quadrant (APC Ab binding positive, FITC Ag display positive) [3]: 32.3% | percent of cells in the upper right quadrant (APC Ab binding positive, FITC Ag display positive) [4]: 41.2% | Kd [5]: 8.35 nM

B2: TY21432 (antibody, human IgG4, V domains shown)
VH: EVQLVESGGGLVQPGGSLRLSCAASGYTFSSYAIHWVRQAPGKGLEWVSVISGAGSSTYYADSVKGRFTISRDNSKNTLYLQLNSLRAEDTAVYYCARRTPAGNYFDYWGQGTLVTVSS
VL: B1 VL with T30S, S31R, A32W, Q89E, Y92L, P93E, W94V, W96P
notes: as for B1
binding result [2]: no binding (tested: 100 nM) | percent of cells in the upper right quadrant (APC Ab binding positive, FITC Ag display positive) [3]: 28.8% | percent of cells in the upper right quadrant (APC Ab binding positive, FITC Ag display positive) [4]: 41.7% | Kd [5]: 13.8 nM

B3: TY21431 (antibody, human IgG4, V domains shown)
VH: EVQLVESGGGLVQPGGSLRLSCAASGFTFTDYAIHWVRQAPGKGLEWVSVISGYGSSTYYADSVKGRFTISRDNSKNTLYLQLNSLRAEDTAVYYCARGSYSSVYFDVWGQGTLVTVSS
VL: DIQLTQSPSSLSASVGDRVTITCKASQDVRTAVAWYQQKPGKAPKLLIYAASSLQSGVPSRFSGSGSGTDFTLTISSLQPEDFATYYCQQSYPIPFTFGQGTKVEIK
notes: as for B1
binding result [6]: no binding (tested: 100 nM) | Kd [5]: 20.9 nM
